Measurements reported in article PMC6374468 (Nature Communications, 2019).

Molecular target: monomeric gp120 from isolate BaL (HIV-1 clade B, isolate BaL (clone not …, UniProt Q6TAP7, strain))
Assay: ELISA

B1: VRC01 FR3-03 (antibody, V domains shown)
VH: QVQLVQSGGQMKKPGESMRISCRASGYEFIDCTLNWIRLAPGKRPEWMGWLKPRGGAVNYARPLQGRVTMTRQLSQDPDDPDWGTAFLELRSLTVDDTAVYFCTRGKNCDYNWDFEHWGRGTPVIVGG
VL: EIVLTQSPGTLSLSPGETAIISCRTSQYGSLAWYQQRPGQAPRLVIYSGSTRAAGIPDRFSGSRWGPDYNLTISNLESGDFGVYYCQQYEFFGQGTKVQVG
binding result: binds
